± gives the uncertainty stated by the source.
Experiment: protein stability index of a GFP-peptide fusion (yeast GPS) (PSI 1-4); higher = more stable; sorted into four equal gates, so the index is relative within each strain
Outline: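 Mid-log yeast cultures in leucine-free medium, carrying a pooled plasmid library, were sorted into four equal gates by their GFP/Cherry fluorescence ratio. Each plasmid expressed Cherry along with GFP fused upstream of a tiled 17-residue yeast protein peptide. Plasmids recovered from each gate were PCR-amplified and Illumina-sequenced, with reads assigned to strains by barcodes. The protein stability index was obtained by summing each gate's read frequency weighted by its gate number.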

Row | Sequence | protein stability index (doa10∆) | protein stability index (pdr5∆) | protein stability index (san1∆) | protein stability index (ubr1∆)
1 | ILYSFKLSGKLLKEEKI [YML103C/NUP188] | 1.4 ± 0.059 | 1.6 ± 0.063 | 2.11 ± 0.1 | 2.49 ± 0.1
2 | IMELPGVYSDDELLSQL [SRP68] | 2.99 ± 0.065 | 3.13 ± 0.056 | 3.22 ± 0.045 | 3.05 ± 0.07
3 | IMNELYRMKGGRVTFIP [SMC3] | 2.12 ± 0.23 | – | – | 3.66 ± 0.16
4 | IMQEAGLRAVRKNRYVI [RPT3] | 2.89 ± 0.076 | 2.97 ± 0.099 | 2.91 ± 0.083 | 3.29 ± 0.13
5 | INCNKETIENVKLQMIK [ECM29] | 3.21 ± 0.097 | 3.03 ± 0.16 | 2.93 ± 0.089 | 3.4 ± 0.13
6 | INELFKKYTQNNPLLLI [RPN8] | 1.85 ± 0.071 | 1.48 ± 0.05 | 1.37 ± 0.14 | 1.11 ± 0.049
7 | INELVLENFKSYAGKQV [SMC4] | 2.69 ± 0.075 | 2.75 ± 0.057 | 2.39 ± 0.079 | 2.74 ± 0.049
8 | INESAENFSNGISLVME [MED1] | 3.35 ± 0.11 | 3.16 ± 0.07 | 3.07 ± 0.055 | 3.1 ± 0.045
9 | INGWELTKAQKYLDQVL [RPL17B] | 2.74 ± 0.2 | 2.9 ± 0.17 | 2.86 ± 0.1 | 2.74 ± 0.063
10 | INHKINNKITQLIAKNV [SIR3] | 1.58 ± 0.063 | 1.7 ± 0.062 | 2.22 ± 0.077 | 2.16 ± 0.064
11 | INIKYLRLDGHTKSDER [SNF2] | 3.1 ± 0.083 | 2.11 ± 0.063 | 2.29 ± 0.098 | 2.79 ± 0.063
12 | ININEFALPAGSPKSAT [CDC53] | 2.71 ± 0.067 | 2.76 ± 0.053 | 2.64 ± 0.07 | 2.73 ± 0.04
13 | INKMVGNRYLEKRLNLR [RPL21A] | 2.65 ± 0.085 | 2.8 ± 0.077 | 2.92 ± 0.092 | 3 ± 0.065
14 | INSAPDFTQEDELRKQE [ISW2] | 3.24 ± 0.084 | 3.52 ± 0.068 | 3.4 ± 0.062 | 3.46 ± 0.057
15 | INSTKNGKDNNNESNKN [MED2] | 3.08 ± 0.052 | 3.15 ± 0.045 | 3.22 ± 0.038 | 3.19 ± 0.033
16 | INVDNDPFFAQSEDLSH [YML103C/NUP188] | 3.15 ± 0.055 | 3.08 ± 0.056 | 3.15 ± 0.044 | 3.05 ± 0.046
17 | IPAWFLNRQNDITDGKD [RPS18A] | 2.91 ± 0.17 | 3.22 ± 0.15 | 2.76 ± 0.2 | 2.87 ± 0.09
18 | IPISSETTIDDLPISST [SMC1] | 2.68 ± 0.047 | 2.72 ± 0.061 | 2.68 ± 0.047 | 2.99 ± 0.041
19 | IPLGKNVVVKWQGKPVF [RIP1] | 3.36 ± 0.26 | – | 3.42 ± 0.07 | 2.96 ± 0.26
20 | IPMDFIRNVLVTVDQYV [SSN2] | 1.13 ± 0.047 | 1.58 ± 0.056 | 1.33 ± 0.091 | 1.63 ± 0.06

Row | Sequence | protein stability index (doa10∆) | protein stability index (pdr5∆) | protein stability index (san1∆) | protein stability index (ubr1∆)
21 | IPNLTAKPFQVTKEYFQ [FAS1] | 2.61 ± 0.051 | 2.95 ± 0.049 | 3.04 ± 0.061 | 2.79 ± 0.041
22 | IPPPMPKNQQYRAFGSI [MED7] | 2.04 ± 0.083 | 2.31 ± 0.093 | 2.42 ± 0.1 | 2.04 ± 0.071
23 | IPRHLQLAIRNDDELNK [HTA1] | 3.02 ± 0.093 | 3.23 ± 0.063 | 3.28 ± 0.059 | 2.89 ± 0.062
24 | IPSQRGTSTTHGSISPQ [SIR3] | 2.39 ± 0.033 | 2.58 ± 0.035 | 2.37 ± 0.036 | 2.54 ± 0.026
25 | IPTLAIDSVEVETNTTV [RPB3] | 2.82 ± 0.22 | 2.44 ± 0.16 | 2.94 ± 0.083 | 2.98 ± 0.059
26 | IPVEILVRRLSDIKQGY [PRE9] | 2.95 ± 0.08 | 2.72 ± 0.095 | 2.79 ± 0.061 | 2.87 ± 0.06
27 | IPVGDNTVVGISGDISD [PRE4] | 2.98 ± 0.13 | 3.12 ± 0.12 | 2.85 ± 0.16 | 3.02 ± 0.12
28 | IPYAAKLLFQELMAMNI [RPB2] | 1.64 ± 0.13 | 1.66 ± 0.098 | 1.64 ± 0.29 | 1.55 ± 0.055
29 | IPYGPDFDNIEFKKIPR [SEC65] | 3.21 ± 0.093 | 3.1 ± 0.11 | 2.87 ± 0.075 | 3.17 ± 0.084
30 | IQAVFCLTKFQDEEQTE [YCG1] | 2.23 ± 0.057 | 2.24 ± 0.062 | 2.64 ± 0.057 | 2.82 ± 0.06
31 | IQCQIDKLYIHFVQEEP [RGR1] | 2.09 ± 0.093 | 2.55 ± 0.093 | 2.85 ± 0.083 | 3.15 ± 0.095
32 | IQFGAKNMFEKKASKVT [ISW2] | 2.66 ± 0.07 | 2.91 ± 0.072 | 2.68 ± 0.074 | 2.69 ± 0.11
33 | IQKESTLHLVLRLRGGG [RPS31] | 2.64 ± 0.12 | 2.31 ± 0.067 | 1.75 ± 0.096 | 2.45 ± 0.066
34 | IQLLDENVGTRLLPINV [MED11] | 3.09 ± 0.16 | 2.86 ± 0.1 | 3.14 ± 0.066 | 3.16 ± 0.063
35 | IQLSTVNRQSPLFFVDL [RGR1] | 1.59 ± 0.08 | 1.69 ± 0.094 | 1.9 ± 0.12 | 1.76 ± 0.099
36 | IQNKKIQEQRVKDKQSK [RPN8] | 1.97 ± 0.11 | 2.78 ± 0.13 | – | 2.92 ± 0.13
37 | IQPTAKVVYIQRRSWRQ [DIS3] | 1.52 ± 0.1 | 1.48 ± 0.072 | 1.31 ± 0.13 | 1.16 ± 0.12
38 | IQQLISQFLKRVHANLQ [SNF11] | 1.63 ± 0.051 | 1.61 ± 0.044 | 1.52 ± 0.068 | 1.54 ± 0.038
39 | IQRTTESLILKWDNQSA [RGR1] | 3.14 ± 0.051 | 3.05 ± 0.056 | 2.36 ± 0.059 | 2.94 ± 0.05
